Test results taken from the Human Domainome abundance scans (Beltran et al. 2025).
± gives the uncertainty stated by the source.

B1: Transcription intermediary factor 1-beta, residues 620 to 671; numbered along this chain, Q13263 (parent)
chain: TLDDSATICRVCQKPGDLVMCNQCEFCFHLDCHLPALQDVPGEEWSCSLCHV

Variants of: B1
Test: abundance fitness (aPCA) (normalised: wild type 0, dead -1); higher = more abundant; growth selection in yeast, the domain comes from the species named
Settings: Homo sapiens

Abundance fitness, by site and new letter:
E44: M -0.058 ± 0.12; A -0.226 ± 0.11; Y -0.143 ± 0.23; I -0.35 ± 0.18; Q -0.057 ± 0.13; S -0.07 ± 0.11; L -0.253 ± 0.087; T -0.164 ± 0.14; V -0.217 ± 0.085; P -0.369 ± 0.13; F -0.412 ± 0.2; C 0.058 ± 0.15; K -0.172 ± 0.13; N -0.16 ± 0.2; R -0.08 ± 0.095; G -0.042 ± 0.11
Q38: I 0.079 ± 0.15; W -0.482 ± 0.12; N 0.082 ± 0.2; S -0.295 ± 0.099; G -0.181 ± 0.1; A -0.02 ± 0.1; V -0.132 ± 0.099; T -0.345 ± 0.13; K -0.18 ± 0.17; R 0.023 ± 0.091; C -0.401 ± 0.16; Y -0.417 ± 0.17; L -0.227 ± 0.09; M -0.443 ± 0.15; H -0.279 ± 0.2; P -0.437 ± 0.15; E -0.434 ± 0.16; F -0.39 ± 0.14
D39: I -0.121 ± 0.16; R -0.222 ± 0.1; S -0.227 ± 0.12; H -0.268 ± 0.21; A -0.175 ± 0.16; C -0.212 ± 0.15; Y -0.206 ± 0.17; K -0.272 ± 0.21; Q -0.184 ± 0.17; M -0.24 ± 0.14; F -0.214 ± 0.17; T -0.089 ± 0.19; E 0.287 ± 0.16; N -0.551 ± 0.27; V 0.026 ± 0.099; G -0.235 ± 0.098; W -0.545 ± 0.14
G42: K 0.095 ± 0.16; T 0.174 ± 0.12; Q -0.028 ± 0.22; A 0.014 ± 0.085; E -0.139 ± 0.15; W -0.302 ± 0.14; P -0.085 ± 0.13; F -0.161 ± 0.22; M -0.091 ± 0.14; C -0.222 ± 0.16; R -0.074 ± 0.099; H 0.083 ± 0.24; L -0.086 ± 0.092; Y -0.421 ± 0.21; S -0.265 ± 0.13; V -0.107 ± 0.099
D31: P -0.175 ± 0.16; E -0.202 ± 0.14; M -0.365 ± 0.17; S -0.317 ± 0.11; V -0.254 ± 0.093; F -0.558 ± 0.16; Q 0.04 ± 0.21; N 0.175 ± 0.12; G -0.004 ± 0.1; W -0.921 ± 0.32; K -0.528 ± 0.2; I -0.501 ± 0.18; H -0.024 ± 0.15; A -0.257 ± 0.12; C -0.709 ± 0.2; R -0.324 ± 0.12; T -0.308 ± 0.12
L34: K 0.13 ± 0.15; D 0.325 ± 0.14; Y 0.062 ± 0.15; V 0.062 ± 0.095; G 0.098 ± 0.08; E 0.188 ± 0.13; N 0.543 ± 0.15; S 0.283 ± 0.093; I -0.305 ± 0.17; W -0.328 ± 0.11; T -0.065 ± 0.17; P 0.036 ± 0.18; F 0.03 ± 0.15; A 0.164 ± 0.13; Q 0.05 ± 0.15; C 0.274 ± 0.094; H 0.157 ± 0.17
C50: G -0.278 ± 0.098; F -0.315 ± 0.18; A -0.112 ± 0.096; D -0.183 ± 0.17; L -0.797 ± 0.11; M -0.65 ± 0.19; E -0.232 ± 0.12; K -0.1 ± 0.16
P35: E -0.447 ± 0.12; M -0.291 ± 0.15; D -0.447 ± 0.14; Q -0.698 ± 0.2; V -0.458 ± 0.088; K -0.18 ± 0.16; F -0.637 ± 0.17; T -0.552 ± 0.16; G -0.244 ± 0.096; S -0.128 ± 0.1; N -0.222 ± 0.17; L -0.508 ± 0.12; W -0.799 ± 0.14; H -0.431 ± 0.23; A -0.553 ± 0.12; R -0.488 ± 0.11
L37: H -0.215 ± 0.24; N -0.334 ± 0.35; K -0.421 ± 0.2; C -0.021 ± 0.12; E -0.499 ± 0.17; F -0.344 ± 0.2; S -0.071 ± 0.11; V -0.094 ± 0.096; D -0.278 ± 0.21; T 0.035 ± 0.14; R -0.106 ± 0.096; M -0.083 ± 0.14; P -0.138 ± 0.14; W 0.118 ± 0.13; Q -0.108 ± 0.17; Y -0.27 ± 0.18
L49: G 0.334 ± 0.066; A 0.205 ± 0.076; Q 0.263 ± 0.12; T 0.301 ± 0.086; Y 0.131 ± 0.12; D 0.277 ± 0.1; N 0.46 ± 0.13; W 0.066 ± 0.076; M 0 ± 0.092; P 0.1 ± 0.098; C -0.282 ± 0.14; I -0.045 ± 0.14; E 0.389 ± 0.092; S 0.303 ± 0.08; R 0.219 ± 0.075; H 0.496 ± 0.15; K 0.27 ± 0.11; V -0.09 ± 0.082; F 0.192 ± 0.12
L30: R -0.02 ± 0.098; T -0.292 ± 0.19; W -0.271 ± 0.12; S -0.145 ± 0.13
A36: K -0.183 ± 0.15; P 0.077 ± 0.15; W -0.527 ± 0.17; S 0.079 ± 0.11; R 0.058 ± 0.11; D -0.394 ± 0.16; N -0.384 ± 0.31; L -0.173 ± 0.11; C -0.713 ± 0.18; G -0.116 ± 0.087; H -0.168 ± 0.19; T -0.161 ± 0.17; V 0.06 ± 0.093; I -0.449 ± 0.19; Y -0.499 ± 0.2; Q -0.633 ± 0.32; E 0.034 ± 0.13
C47: H -0.572 ± 0.14; G -0.33 ± 0.075; Y -0.736 ± 0.17; S -0.343 ± 0.083; E -0.295 ± 0.088; W -0.951 ± 0.11; Q -0.636 ± 0.14; R -0.552 ± 0.079; K -0.466 ± 0.11; V -0.807 ± 0.089; P -0.484 ± 0.12; D -0.456 ± 0.12; M -0.794 ± 0.12; N -0.382 ± 0.12; T -0.565 ± 0.11; I -1.05 ± 0.22; L -0.864 ± 0.1
E43: Y -0.486 ± 0.22; S -0.007 ± 0.095; Q -0.298 ± 0.19; V -0.165 ± 0.086; I -0.092 ± 0.14; D 0.088 ± 0.17; C -0.129 ± 0.12; N -0.089 ± 0.37; A 0.035 ± 0.11; W -0.2 ± 0.1; P -0.032 ± 0.14; H 0.062 ± 0.22; L -0.085 ± 0.086
H33: I -0.325 ± 0.23; Y -0.294 ± 0.14; P -0.344 ± 0.14; M -0.205 ± 0.15; S 0.012 ± 0.1; L -0.117 ± 0.098; V 0.033 ± 0.098; E 0.2 ± 0.15; G -0.159 ± 0.083; K -0.218 ± 0.17; A -0.013 ± 0.1; T -0.235 ± 0.14; W -0.444 ± 0.13; R -0.109 ± 0.095; N -0.139 ± 0.17; Q 0.042 ± 0.15; C 0.217 ± 0.14; D 0.086 ± 0.12
C32: M -0.952 ± 0.16; W -0.923 ± 0.18; R -0.704 ± 0.11; A -0.545 ± 0.14; F -0.959 ± 0.18; Q -0.904 ± 0.26; E -0.871 ± 0.24; L -0.925 ± 0.12; I -0.911 ± 0.2; G -0.652 ± 0.11; V -1.03 ± 0.17; T -0.937 ± 0.18; Y -0.45 ± 0.15; K -0.795 ± 0.17; S -0.507 ± 0.13; P -0.454 ± 0.16; N -0.528 ± 0.25; H -0.501 ± 0.22; D -0.683 ± 0.18
S48: D -0.242 ± 0.17; E -0.014 ± 0.12; G -0.071 ± 0.083; C -0.324 ± 0.2; A -0.112 ± 0.1; W 0.057 ± 0.13; N -0.114 ± 0.28; F -0.45 ± 0.18; L -0.409 ± 0.097; T -0.217 ± 0.1; Q -0.234 ± 0.18; Y -0.094 ± 0.14; R 0.105 ± 0.087; I -0.798 ± 0.2; P 0.152 ± 0.12; H 0.052 ± 0.21; V -0.508 ± 0.085; M 0.386 ± 0.1
S46: T -0.09 ± 0.11; R -0.101 ± 0.074; A 0.128 ± 0.077; L -0.003 ± 0.078; H -0.113 ± 0.14; C -0.116 ± 0.091; V 0.059 ± 0.072; Y -0.245 ± 0.12; N 0.018 ± 0.13; E 0.111 ± 0.082; F -0.129 ± 0.11; P -0.208 ± 0.13; I -0.01 ± 0.12; Q 0.118 ± 0.094; W -0.131 ± 0.098; M 0.082 ± 0.1; K 0.155 ± 0.1
P41: V -0.254 ± 0.11; D -0.245 ± 0.21; F -0.439 ± 0.15; G -0.202 ± 0.11; K -0.645 ± 0.25; N -0.112 ± 0.17; C -0.242 ± 0.14; H -0.513 ± 0.18; R -0.26 ± 0.096; M -0.303 ± 0.16; Q -0.204 ± 0.17; A -0.368 ± 0.13; T -0.619 ± 0.22; I -0.302 ± 0.18; E -0.073 ± 0.14; S -0.374 ± 0.14; W -0.258 ± 0.2
V40: R 0.166 ± 0.098; D -0.02 ± 0.15; A -0.323 ± 0.14; F 0.01 ± 0.12; P 0.264 ± 0.19; M -0.213 ± 0.22; L -0.221 ± 0.11; W -0.101 ± 0.14; N -0.218 ± 0.2; S -0.121 ± 0.11; C -0.401 ± 0.17; G -0.301 ± 0.1; Q -0.383 ± 0.21; K -0.221 ± 0.35; I -0.401 ± 0.23; E -0.403 ± 0.17; Y -0.121 ± 0.22; H -0.361 ± 0.24
W45: H -0.103 ± 0.2; R -0.131 ± 0.089; T -0.54 ± 0.16; V -0.236 ± 0.099; D -0.506 ± 0.14; A 0.051 ± 0.13; E -0.158 ± 0.14; L -0.195 ± 0.091; N -0.377 ± 0.3; C -0.283 ± 0.11; Y -0.202 ± 0.19; M -0.296 ± 0.2; F -0.342 ± 0.16; I -0.254 ± 0.16; Q -0.085 ± 0.22; G -0.137 ± 0.086
